# Measured values taken from US20060074049A1, “Use of heparinoids for treatment and prevention of dementia” (priority 2004, published 2006).
# B1: RANTES: inflammatory chemokine (protein, UniProt P13501 24-91, looked up)
# C-C motif chemokine 5: SPYSSDTTPCCFAYIARPLPRAHIKEYFYTSGKCSNPAVVFVTRKNRQVCANPEKKWVREYINSLEMS
# System: human NPC
# Test: Plating assay: NPC colony formation / quiescence
# Assay type: cell-based
# Settings: fraction less than 30,000 Da after size-exclusion column
# Description: Cells and Materials: Normal human NPC were obtained from Clonetics Corp (San Diego, Calif.), and grown in neural progenitor maintenance medium (Clonetics) with human recombinant basic fibroblast growth factor, epidermal growth factor, neural survival factors and antibiotics. These cells were derived as described previously (Svendsen (1998) J. Neurosci. Meth. 85:141-152).
# Plating Assay: On day 0, HIV coat proteins at a concentration of 800 pM, or CSF at a concentration of 2% was added to cultures of NPC. Each protein or CSF sample was tested in triplicate. Cultures were incubated for seven days, and then cells were plated onto 24 well polyethylene-imine coated plates. The number of cell colonies having more than 20 cells with typical neuronal morphology was counted for each well after 7 days in culture. Determinations of colony inhibition for all proteins and CSF samples were done on each of three different lots of NPC. […]
# The ability of HIV coat proteins to induce quiescence in human NPC was tested using NPC in the form of neurospheres. […] The number of colonies containing more than 20 cells with typical neuronal morphology was counted after 7 days in culture. […] None of the coat proteins induced cell death in NPC, as determined by trypan blue staining (>95% viability in all coat-protein treated cultures). […]
molecule,measurement,value
B1,effect on NPC in the plating assay,inhibit NPC
